Data: the supplement of paper PMC7125110
± gives the standard error. For some assays here: This sample holds only a part of the variants without activity.

B1: glmS ribozyme (parent)
chain: AUAAAAGCGCCAGAACUACAGAAAUGUAGUUGACGAGGAGGAGGUUUAUCGAAUUUUCGGCGGAUGCCUCCAAA

Columns and labels:
Conditions in all cases: with glucosamine-6-phosphate
glucosamine-6-phosphate [1] = variants of: B1; assay: kcat; higher = faster cleavage; RNA array
Summary of the method: (§1)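 Tiles bearing barcoded ribozyme variants, transcribed in situ by E. coli RNA polymerase on sequenced MiSeq chips, were imaged over ~14 h at 37 °C using a hybridised Cy3 probe. Glucosamine-6-phosphate was supplied at 40 μM to 10 mM in HEPES/KCl/Mg(OAc)2 buffer. kobs came from one- or two-exponential decay fits to normalised per-tile medians, and weighted Michaelis–Menten fits then provided kcat and KM.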

glucosamine-6-phosphate [2] = variants of: B1; assay: self-cleavage kobs at 160 uM GlcN6P; higher = faster cleavage; RNA array
Summary of the method: as §1

glucosamine-6-phosphate [3] = variants of: B1; assay: self-cleavage kobs at 640 uM GlcN6P; higher = faster cleavage; RNA array
Summary of the method: as §1

glucosamine-6-phosphate [4] = variants of: B1; assay: self-cleavage kobs at 2500 uM GlcN6P; higher = faster cleavage; RNA array
Summary of the method: as §1

glucosamine-6-phosphate [5] = variants of: B1; assay: self-cleavage kobs at 40 uM GlcN6P; higher = faster cleavage; RNA array
Summary of the method: as §1

glucosamine-6-phosphate [6] = variants of: B1; assay: self-cleavage kobs at 10000 uM GlcN6P; higher = faster cleavage; RNA array
Summary of the method: as §1

glucosamine-6-phosphate [7] = variants of: B1; assay: KM; higher = weaker cofactor use; RNA array
Summary of the method: as §1

Variant	kcat (glucosamine-6-phosphate [1]) [s⁻¹]	self-cleavage kobs at 160 uM GlcN6P (glucosamine-6-phosphate [2]) [s⁻¹]	self-cleavage kobs at 640 uM GlcN6P (glucosamine-6-phosphate [3]) [s⁻¹]	self-cleavage kobs at 2500 uM GlcN6P (glucosamine-6-phosphate [4]) [s⁻¹]	self-cleavage kobs at 40 uM GlcN6P (glucosamine-6-phosphate [5]) [s⁻¹]	self-cleavage kobs at 10000 uM GlcN6P (glucosamine-6-phosphate [6]) [s⁻¹]	KM (glucosamine-6-phosphate [7]) [µM]
C61A C71G	1.3e-05 ± 2.8e-06						
U56G U69G C71U	4.56e-05 ± 1.5e-05	8.5e-05 ± 2.7e-05	3.88e-05 ± 1.7e-05	5.83e-05 ± 2e-05			
C61G C70G	1.85e-05 ± 5.6e-06						
A64C C68U	< 1e-05	< 1e-05			< 1e-05	< 1e-05	
U56C U65G	0.000503 ± 9.7e-05			0.000206 ± 7.7e-05		0.00041 ± 8.6e-05	
U56C U65A	0.0012 ± 0.00021	2.29e-05 ± 1.1e-05	0.000115 ± 2.5e-05	0.000269 ± 5.1e-05		0.000702 ± 8.3e-05	7470 ± 2000
U65C C68A	< 1e-05				< 1e-05		
C58G C70G	5.46e-05 ± 1.6e-05	4.69e-05 ± 1.8e-05	7.73e-05 ± 2e-05	5.92e-05 ± 1.4e-05			
C58G C70U	5.2e-05 ± 3.9e-06	2.43e-05 ± 1.1e-05	3.07e-05 ± 1.1e-05	5.21e-05 ± 7e-06		4.8e-05 ± 7.6e-06	230 ± 110
G62C C70A	1.23e-05 ± 3.2e-06						
U55C U69G	1.99e-05 ± 1.9e-06						
U55C U69C	0.00119 ± 0.00046		6.77e-05 ± 2.8e-05	0.000177 ± 2.6e-05		0.000523 ± 0.00012	
U57G C71G	2.02e-05 ± 3.8e-06						
C58U C71A	7.75e-05 ± 1.6e-05					2.61e-05 ± 1.2e-05	
C58U C71G	< 1e-05						
U56G C61U	< 1e-05				< 1e-05		
G62A C68U	< 1e-05					< 1e-05	
U56G C58G	0.000173 ± 4.6e-06		4.42e-05 ± 1e-05	0.000103 ± 1.4e-05		0.000145 ± 2.1e-05	1800 ± 110
G66A C70U	0.0162 ± 0.0065	0.00153 ± 0.00021	0.00577 ± 0.00081	0.00738 ± 0.0024	0.00075 ± 0.0001	0.0185 ± 0.0034	
G60A C70A	1.05e-05 ± 2.5e-06				< 1e-05		
A64G C67G	0.000471 ± 1.9e-05		0.000111 ± 1.5e-05	0.000275 ± 6.1e-05		0.000386 ± 3.6e-05	2090 ± 180
C61A C67U C71U	5.2e-05 ± 2.5e-05		8.57e-05 ± 2.8e-05				
U57C C68G	1.42e-05 ± 2.7e-06						

Variant	kcat (glucosamine-6-phosphate [1]) [s⁻¹]	self-cleavage kobs at 160 uM GlcN6P (glucosamine-6-phosphate [2]) [s⁻¹]	self-cleavage kobs at 640 uM GlcN6P (glucosamine-6-phosphate [3]) [s⁻¹]	self-cleavage kobs at 2500 uM GlcN6P (glucosamine-6-phosphate [4]) [s⁻¹]	self-cleavage kobs at 40 uM GlcN6P (glucosamine-6-phosphate [5]) [s⁻¹]	self-cleavage kobs at 10000 uM GlcN6P (glucosamine-6-phosphate [6]) [s⁻¹]	KM (glucosamine-6-phosphate [7]) [µM]
C61G U69A	2.83e-05 ± 3.9e-06						
U57A U65G	4.49e-05 ± 7.1e-06			4.6e-05 ± 1.3e-05	< 1e-05	3.88e-05 ± 1.2e-05	
G63A C71G	2.96e-05 ± 9.4e-06				< 1e-05		
C61U C71U	2.55e-05 ± 4.8e-07	< 1e-05	< 1e-05		< 1e-05		2880 ± 200
C58A C61A C70U	1.3e-05 ± 1.9e-06						
C61A	< 1e-05						
C61U	1.4e-05 ± 3.1e-06			2.23e-05 ± 2.6e-06	< 1e-05	1.19e-05 ± 1.4e-06	
U56C C71U	0.000531 ± 7.9e-05		0.000219 ± 3.6e-05	0.000287 ± 5.6e-05		0.000477 ± 4.5e-05	1380 ± 590
G60C C68G	1.2e-05 ± 1.5e-06						
G60C C68U	< 1e-05	< 1e-05					
C58A C67G	9.61e-05 ± 2.2e-05	3.39e-05 ± 1.3e-05	6.98e-05 ± 9.8e-06	6.08e-05 ± 1e-05		0.000124 ± 1.3e-05	
C58A C70G	5.06e-05 ± 4.7e-06	3.59e-05 ± 1.2e-05	3.65e-05 ± 1.3e-05	5.19e-05 ± 1.1e-05			91.6 ± 44
G66C U69C	0.000157 ± 7.2e-05		7.5e-05 ± 2.8e-05	6.79e-05 ± 1.5e-05		0.000137 ± 2.8e-05	
G59U C71A	1.28e-05 ± 7.6e-07						
G59U C71U	5.45e-05 ± 7.2e-06			2.79e-05 ± 1.3e-05		4.88e-05 ± 8.4e-06	
G60A	2.13e-05 ± 1.7e-06		< 1e-05	2.19e-05 ± 2.6e-06	< 1e-05	1.98e-05 ± 1.2e-06	
G66C C67A	0.000183 ± 3e-05		3.04e-05 ± 1.2e-05	0.000107 ± 1.6e-05		0.000137 ± 2.5e-05	2370 ± 860
G60C G66A	< 1e-05		< 1e-05				
U57G C67U	3.05e-05 ± 1e-05			4.91e-05 ± 1.5e-05		2.19e-05 ± 1e-05	
U57G C67A	2.87e-05 ± 6.3e-06					2.45e-05 ± 1.2e-05	
U56G C68U	0.00243 ± 0.00033	0.000217 ± 4.7e-05	0.000551 ± 9.7e-05	0.00206 ± 0.00046	6.61e-05 ± 1.1e-05	0.00208 ± 0.00021	1660 ± 380
U56G C68G	6.61e-05 ± 1e-05			2.78e-05 ± 1.4e-05		5.46e-05 ± 8.1e-06	
